Measurements reported in patent publication US20210095007A1 (MIT, published 2021).

T1: Ebola GPdTM (IBT Bioservices) (Ebola virus, UniProt Q05320 33-650)
T1 sequence: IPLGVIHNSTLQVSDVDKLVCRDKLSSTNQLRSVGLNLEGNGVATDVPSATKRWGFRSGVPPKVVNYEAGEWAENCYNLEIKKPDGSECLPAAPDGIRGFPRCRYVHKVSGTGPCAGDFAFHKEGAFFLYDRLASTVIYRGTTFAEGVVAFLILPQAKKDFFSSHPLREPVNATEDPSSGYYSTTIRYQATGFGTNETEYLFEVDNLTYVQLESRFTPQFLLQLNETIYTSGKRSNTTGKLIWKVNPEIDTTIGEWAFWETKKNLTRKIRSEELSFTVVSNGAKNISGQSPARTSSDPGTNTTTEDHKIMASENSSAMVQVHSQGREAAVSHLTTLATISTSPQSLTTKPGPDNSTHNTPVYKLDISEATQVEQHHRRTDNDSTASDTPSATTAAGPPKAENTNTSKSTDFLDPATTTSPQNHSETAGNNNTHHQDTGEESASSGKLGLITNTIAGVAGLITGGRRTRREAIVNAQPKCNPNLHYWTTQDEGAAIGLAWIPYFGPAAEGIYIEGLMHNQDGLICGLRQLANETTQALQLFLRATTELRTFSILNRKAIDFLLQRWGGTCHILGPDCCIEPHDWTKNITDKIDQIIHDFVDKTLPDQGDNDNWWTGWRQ

T2: Ebola virus glycoprotein on Ebola virus Kikwit 1995 strain (Zaire Ebola virus, Kikwit 1995 strain, UniProt P87666 33-676)
T2 sequence: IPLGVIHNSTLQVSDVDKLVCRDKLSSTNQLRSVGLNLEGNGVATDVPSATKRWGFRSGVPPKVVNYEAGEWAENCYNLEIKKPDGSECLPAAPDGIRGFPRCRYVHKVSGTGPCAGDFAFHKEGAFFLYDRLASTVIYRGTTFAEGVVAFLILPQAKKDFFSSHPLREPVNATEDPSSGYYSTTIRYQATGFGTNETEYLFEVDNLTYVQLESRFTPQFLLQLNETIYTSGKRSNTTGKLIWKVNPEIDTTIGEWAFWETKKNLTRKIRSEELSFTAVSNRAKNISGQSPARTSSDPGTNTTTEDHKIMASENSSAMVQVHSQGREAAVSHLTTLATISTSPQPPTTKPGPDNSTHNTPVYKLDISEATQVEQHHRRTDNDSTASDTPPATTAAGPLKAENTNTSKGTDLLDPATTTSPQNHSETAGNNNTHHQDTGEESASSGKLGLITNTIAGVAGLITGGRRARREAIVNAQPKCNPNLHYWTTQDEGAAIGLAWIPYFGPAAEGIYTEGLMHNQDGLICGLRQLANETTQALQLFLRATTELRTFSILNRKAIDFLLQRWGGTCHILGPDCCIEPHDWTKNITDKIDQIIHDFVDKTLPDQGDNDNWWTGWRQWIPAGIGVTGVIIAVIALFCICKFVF

T3: Ebola virus glycoprotein on Ebola virus Mayinga 1976 strain (Zaire Ebola virus, Mayinga 1976 strain, UniProt Q05320 33-676)
T3 sequence: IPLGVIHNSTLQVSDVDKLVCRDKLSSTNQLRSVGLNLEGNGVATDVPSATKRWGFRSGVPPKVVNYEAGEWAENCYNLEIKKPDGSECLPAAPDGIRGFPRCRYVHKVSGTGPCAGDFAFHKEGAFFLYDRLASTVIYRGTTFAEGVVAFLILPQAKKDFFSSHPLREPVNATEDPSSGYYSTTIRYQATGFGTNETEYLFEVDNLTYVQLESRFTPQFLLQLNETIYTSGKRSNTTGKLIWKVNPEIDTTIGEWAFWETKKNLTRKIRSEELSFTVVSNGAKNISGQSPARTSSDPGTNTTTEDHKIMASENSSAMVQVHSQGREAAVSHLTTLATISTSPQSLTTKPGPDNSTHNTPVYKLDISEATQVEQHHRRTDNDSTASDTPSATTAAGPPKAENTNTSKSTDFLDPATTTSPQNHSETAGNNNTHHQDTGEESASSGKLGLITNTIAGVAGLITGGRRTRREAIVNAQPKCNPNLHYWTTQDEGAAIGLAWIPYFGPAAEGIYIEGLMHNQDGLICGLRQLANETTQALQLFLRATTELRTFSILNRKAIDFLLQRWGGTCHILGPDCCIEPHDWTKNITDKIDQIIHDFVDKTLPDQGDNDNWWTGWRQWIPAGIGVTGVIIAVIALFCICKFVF


Key:
[1] = molecular target: T1, Ebola GPdTM (IBT Bioservices); experiment: ELISA, GPdTM coated at 1 µg/mL, anti-human IgG Fc-HRP detection
[2] = molecular target: Ebola virus glycoprotein on Ebola virus Makona 2014 strain (Zaire Ebola virus, Makona 2014 strain); experiment: cell-based or functional assay
[3] = molecular target: T2, Ebola virus glycoprotein on Ebola virus …; experiment: cell-based or functional assay
[4] = molecular target: T3, Ebola virus glycoprotein on Ebola virus …; experiment: cell-based or functional assay

Binder	EC50 [1]	plaque reduction neutralization titre (Vero E6 cells, 200 pfu) [2]	plaque reduction neutralization titre (Vero E6 cells, 200 pfu) [3]	plaque reduction neutralization titre (Vero E6 cells, 200 pfu) [4]
13C6 wild type (parent mouse monoclonal antibody 13C6) (antibody, V domains shown) VH: QLTLKESGPGILKPSQTLSLTCSLSGFSLSTSGVGVGWFRQPSGKGLEWLALIWWDDDKYYNPSLKSQLSISKDFSRNQVFLKISNVDIADTATYYCARRDPFGYDNAMGYWGQGTSVTVSS VL: DIVMTQSQKFMSTSVGDRVSLTCKASQNVGTAVAWYQQKPGQSPKLLIYSASNRYTGVPDRFTGSGSGTDFTLTISNMQSEDLADYFCQQYSSYPLTFGAGTKLELR	0.0747 nM	–	–	–
4G7.10 (antibody, V domains shown) VH: QVQLVQSGAEVKKPGSSVKVSCKASGSSFTGFSMNWVRQAPGQSLEWIGNIDTYYGGTTYNGKFKGRVTLTVDKSTSTAYMELSSLRSEDTAVYYCARSAYYGSTFAYWGQGTLVTVSS VL: DIQMTQSPSSLSASVGDRVTITCRASENIYSYLAWYQQKPGKSPKLLVYNAKTLIEGVPSRFSGSGSGTDFTFTISSLQPEDIATYFCQHHFGTPFTFGQGTKVEIK	0.12 nM	–	–	–
4G7.1 (antibody, V domains shown) VH: QVQLVQSGAEVKKPGSSVKVSCKASGSSFTGFSMNWVRQAPGQGLEWMGNIDTYYGGTTYNGKFKGRVTITADKSTSTAYMELSSLRSEDTAVYYCARSAYYGSTFAYWGQGTLVTVSS VL: DIQMTQSPSSLSASVGDRVTITCRASENIYSYLAWYQQKPGKAPKLLVYNAKTLIEGVPSRFSGSGSGTDFTFTISSLQPEDIATYYCQHHFGTPFTFGQGTKVEIK	0.182 nM	–	–	–
4G7.12 (antibody, V domains shown) VH: QVQLVQSGAEVKKPGSSVKVSCKASGSSFTGFSMNWVRQAPGQSLEWIGNIDTYYGGTTYNGKFKGRVTLTVDKSTSTAYMELSSLRSEDTAVYYCARSAYYGSTFAYWGQGTLVTVSS VL: DIVMTQSPSSLSASVGDRVTITCRASENIYSYLAWYQQKPGKSPKLLVYNAVTLIEGVPSRFSGSGSGTQFSLTISSLQPEDIATYFCQHHFGTPFTFGSGTKVEIK	0.0888 nM	–	–	–
4G7.2 (antibody, V domains shown) VH: QVQLVQSGAEVKKPGSSVKVSCKASGSSFTGFSMNWVRQAPGQGLEWMGNIDTYYGGTTYNGKFKGRVTITADKSTSTAYMELSSLRSEDTAVYYCARSAYYGSTFAYWGQGTLVTVSS VL: DIQMTQSPSSLSASVGDRVTITCRASENIYSYLAWYQQKPGKSPKLLVYNAKTLIEGVPSRFSGSGSGTDFTFTISSLQPEDIATYFCQHHFGTPFTFGQGTKVEIK	0.0952 nM	–	–	–
4G7.11 (antibody, V domains shown) VH: QVQLVQSGAEVKKPGSSVKVSCKASGSSFTGFSMNWVRQAPGQSLEWIGNIDTYYGGTTYNGKFKGRVTLTVDKSTSTAYMELSSLRSEDTAVYYCARSAYYGSTFAYWGQGTLVTVSS VL: DIVMTQSPSSLSASVGDRVTITCRASENIYSYLAWYQQKPGKSPKLLVYNAKTLIEGVPSRFSGSGSGTQFSLTISSLQPEDIATYFCQHHFGTPFTFGSGTKVEIK	0.145 nM	–	–	–
4G7.9 (antibody, V domains shown) VH: QVQLVQSGAEVKKPGSSVKVSCKASGSSFTGFSMNWVRQAPGQSLEWIGNIDTYYGGTTYNGKFKGRVTLTVDKSTSTAYMELSSLRSEDTAVYYCARSAYYGSTFAYWGQGTLVTVSS VL: DIQMTQSPSSLSASVGDRVTITCRASENIYSYLAWYQQKPGKAPKLLVYNAKTLIEGVPSRFSGSGSGTDFTFTISSLQPEDIATYYCQHHFGTPFTFGQGTKVEIK	0.0997 nM	1 µg/mL	1 µg/mL	1 µg/mL
4G7.3 (antibody, V domains shown) VH: QVQLVQSGAEVKKPGSSVKVSCKASGSSFTGFSMNWVRQAPGQGLEWMGNIDTYYGGTTYNGKFKGRVTITADKSTSTAYMELSSLRSEDTAVYYCARSAYYGSTFAYWGQGTLVTVSS VL: DIVMTQSPSSLSASVGDRVTITCRASENIYSYLAWYQQKPGKSPKLLVYNAKTLIEGVPSRFSGSGSGTQFSLTISSLQPEDIATYFCQHHFGTPFTFGSGTKVEIK	0.176 nM	–	–	–
4G7 wild type (parent mouse monoclonal antibody 4G7) (antibody, V domains shown) VH: EVQLQQSGPELEMPGASVKISCKASGSSFTGFSMNWVKQSNGKSLEWIGNIDTYYGGTTYNQKFKGKATLTVDKSSSTAYMQLKSLTSEDSAVYYCARSAYYGSTFAYWGQGTLVTVSS VL: DIVMTQSPASLSASVGETVTITCRASENIYSYLAWYQQKQGKSPQLLVYNAKTLIEGVPSRFSGSGSGTQFSLKINSLQPEDFGSYFCQHHFGTPFTFGSGTELEIK	0.0725 nM	–	–	–
2G4.3 (antibody, V domains shown) VH: EVQLLESGGGLVQPGGSLRLSCVASGFTFSNYWMNWVRQAPGKGLEWLGFIRLKSNNYATHYSASVKGRFTISRDKSKSTLYLQMNTLQAEDSAIYYCTRGNGNYRAMDYWGQGTLVTVSS VL: DIVMTQSPSSLSASVGDRVTITCRASENIYSSLAWYQQKPGKSPQLLVYSATILADGVPSRFSGSGSGTQYTLTISSLQPEDFATYYCQHFWGTPYTFGGGTKVEIK	0.129 nM	–	–	–
2G4.6 (antibody, V domains shown) VH: EVQLLESGGGLVQPGGSLRLSCVASGFTFSNYWMNWVRQAPGKGLEWLAEIRLKSNNYATHYSASVKGRFTISRDKSKSTLYLQMNTLQAEDSAIYYCTRGNGNYRAMDYWGQGTLVTVSS VL: DIVMTQSPSSLSASVGDRVTITCRASENIYSSLAWYQQKPGKSPQLLVYSATILADGVPSRFSGSGSGTQYTLTISSLQPEDFATYYCQHFWGTPYTFGGGTKVEIK	0.109 nM	2 µg/mL	4 µg/mL	2 µg/mL
2G4 wild type (parent mouse monoclonal antibody 2G4) (antibody, V domains shown) VH: EVQLQQSGGGLMQPGGSMKLSCVASGFTFSNYWMNWVRQSPEKGLEWVAEIRLKSNNYATHYAESVKGRFTISRDDSKRSVYLQMNTLRAEDTGIYYCTRGNGNYRAMDYWGQGTSVTVSS VL: DIVMTQSPASLSVSVGETVSITCRASENIYSSLAWYQQKQGKSPQLLVYSATILADGVPSRFSGSGSGTQYSLKINSLQSEDFGTYYCQHFWGTPYTFGGGTKLEIK	0.154 nM	–	–	–
13C6.1 (antibody, V domains shown) VH: QLTLKESGPTLVKPTQTLSLTCTFSGFSLSTSGVGVGWFRQPPGKALEWLALIWWDDDKYYSPSLKSRLTITKDTSKNQVVLTMTNMDPVDTATYYCARRDPFGYDNAMGYWGQGTTVTVSS VL: DIVMTQSPSFLSASVGDRVTITCKASQNVGTAVAWYQQKPGKAPKLLIYSASNRYSGVPSRFSGSGSGTDFTLTISSLQPEDFATYFCQQYSSYPLTFGGGTKLEIK	0.136 nM	> 50 µg/mL	> 50 µg/mL	> 50 µg/mL
